From patent publication US20120021995A1 (published 2012)
Residue numbers refer to the chain shown, from its start. Blank lines part the entries; values can stand above or below the molecule they belong to.

Experiments:
[1] = target: T1, DR4 (TRAIL-R1) on cancer cells (human, UniProt O00220 24-468); test: cell-based or functional assay
T1 sequence: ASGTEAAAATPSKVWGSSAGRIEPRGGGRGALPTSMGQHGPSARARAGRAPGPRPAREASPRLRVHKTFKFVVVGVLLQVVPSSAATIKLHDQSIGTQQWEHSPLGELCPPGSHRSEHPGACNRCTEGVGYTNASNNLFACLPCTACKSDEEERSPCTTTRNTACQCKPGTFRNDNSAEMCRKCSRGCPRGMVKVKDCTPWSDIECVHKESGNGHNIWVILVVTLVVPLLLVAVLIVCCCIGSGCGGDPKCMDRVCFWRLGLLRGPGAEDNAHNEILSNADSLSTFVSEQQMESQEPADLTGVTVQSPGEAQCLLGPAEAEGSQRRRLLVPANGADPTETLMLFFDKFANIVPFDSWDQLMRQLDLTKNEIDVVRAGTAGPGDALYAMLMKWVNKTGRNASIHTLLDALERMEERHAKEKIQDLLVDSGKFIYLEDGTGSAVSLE

[2] = target: DR5 (TRAIL-R2) on cancer cells (human, UniProt O14763 56-440); test: cell-based or functional assay
[3] = target: T2, recombinant human TRAIL R2 (DR5)/Fc chimera (human, UniProt O14763 54-182); test: SPR (Biacore), DR5-Fc captured by anti-Fc, ATRIMER analyte; apparent
T2 construct: bought (R&D Systems); not shown: Fc of the bought chimera (R&D Systems)
Experimental: (§1) Immobilization of an anti-human IgG Fc antibody (Biacore) to the CM5 chip (Biacore) was performed using standard amine coupling chemistry and this surface was used to capture recombinant human DR4 or DR5 receptor Fc fusion protein (R&D Systems). ATRIMER™ dilutions (1-500 nM) were injected over the DR4 and DR5 receptor surface at 30 μl/min and kinetic constants were derived from the sensorgram data using the Biaevaluation software (version 3.1, Biacore). Data collection was 3 minutes for the association and 5 minutes for dissociation. The anti-human IgG surface was regenerated with a 30 s pulse of 3 M magnesium chloride. All sensorgrams were double-referenced against an activated and blocked flow-cell as well as buffer injections.

[4] = target: T1, DR4 (TRAIL-R1) on cancer cells; test: cell-based or functional assay; remark: listed apart in the source
[5] = target: T3, recombinant human TRAIL R1 (DR4)/Fc chimera (human, UniProt O00220 24-239); test: SPR (Biacore), ATRIMER
T3 construct: bought (R&D Systems); not shown: Fc of the bought chimera (R&D Systems)
T3 sequence: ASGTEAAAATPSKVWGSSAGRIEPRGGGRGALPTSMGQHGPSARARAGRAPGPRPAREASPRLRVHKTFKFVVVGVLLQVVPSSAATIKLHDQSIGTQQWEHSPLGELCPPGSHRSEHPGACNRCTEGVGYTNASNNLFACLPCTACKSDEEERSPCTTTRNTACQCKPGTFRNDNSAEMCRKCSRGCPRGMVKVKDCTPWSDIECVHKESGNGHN
Experimental: as §1
Clones were then sub-cloned into pANA19 for expression and purification as described above. Cell killing activity was measured as described above, and binding affinity was measured by Biacore.

[6] = target: T1, DR4 (TRAIL-R1) on cancer cells; test: cell-based or functional assay; remark: listed apart in the source
[7] = target: T1, DR4 (TRAIL-R1) on cancer cells; test: cell-based or functional assay; remark: listed apart in the source

Molecule: rhTRAIL-His (from UniProt P50591 95-281) (ligand)
- EC50 Colo205 (cell killing) [1]: 0.06 nM
- EC50 ST486 (cell killing) [1]: 0.06 nM

- Ka [3]: 6.43e+07 M⁻¹
- Kd [3]: 15.6 nM
- koff [3]: 0.000629 s⁻¹
- kon [3]: 40500 M⁻¹ s⁻¹
B1: 029-15.A8G (designed binder)
chain: EPPTQKPKKIVNAKKDVVNTKMFEELKSRLDTLAQEVALLKEQQALQTVCLKGTKVHMKCFLAFTQTKTFHEASEDCISRGGTLSTPQTGSENDALYEYLRQSVGNEAEIWLGLNRAWLRPRWVDMTGARIAYKNWETEITAQPDGGTLVSGENCAVLSGAANGKWFDKRCRDQLPYICQFGIV
notes: ATRIMER; also called 1a7b
- % cell death of H2122 and A2780 cells, 20 µg/mL, 20 h [2]: > 50%

- Ka [3]: 2.56e+07 M⁻¹
- Kd [3]: 39.1 nM
- koff [3]: 0.000506 s⁻¹
- kon [3]: 12900 M⁻¹ s⁻¹
B2: 029-15.A1H (designed binder)
chain: B1 chain with W118V, T148W, L149V, V150L, S151G, E153K
notes: ATRIMER; also called 8b6b
- % cell death of H2122 and A2780 cells, 20 µg/mL, 20 h [2]: > 50%

- Kd [5]: 3.2 nM
- koff [5]: 0.000302 s⁻¹
- kon [5]: 93800 M⁻¹ s⁻¹
B3: 29p61P1E11 (designed binder)
chain: EPPTQKPKKIVNAKKDVVNTKMFEELKSRLDTLAQEVALLKEQQALQTVCLKGTKVHMKCFLAFTQTKTFHEASEDCISRGGTLSTPQTGSENDALYEYLRQSVGNEAEIWLGLNGWLEGVGWVDMTGARIAYKNWETEITAQPDGGWPFSNENCAVLSGAANGKWFDKRCRDQLPYICQFGIV
notes: ATRIMER; also called 029-61.1E11
- ED50 (nM) ST486 (cell killing) [4]: 217 nM
- ED50 ST486 (cell killing) [6]: 217 nM

B4: 71p88P1G4 (designed binder)
chain: B3 chain with W117Y, L118M, E119T, W148R, P149S, F150W, S151K, N152W
- Colo205 % killing (% of TRAIL activity) [7]: 24%
- H2122 % killing (% of TRAIL activity) [7]: 5%
- ST486 % killing (% of TRAIL activity) [7]: 75%
- ED50 ST486 (cell killing) [6]: 75 nM

B5: 71p88P1G1 (designed binder)
chain: B3 chain with L118M, W148P, F150W, S151R, N152W
- Colo205 % killing (% of TRAIL activity) [7]: 12%
- H2122 % killing (% of TRAIL activity) [7]: 0%
- ST486 % killing (% of TRAIL activity) [7]: 78%
- ED50 ST486 (cell killing) [6]: 80 nM

- Ka [3]: 1.74e+08 M⁻¹
- Kd [3]: 5.74 nM
- koff [3]: 0.000362 s⁻¹
- kon [3]: 63000 M⁻¹ s⁻¹
B6: 029-15.A3C (designed binder)
chain: EPPTQKPKKIVNAKKDVVNTKMFEELKSRLDTLAQEVALLKEQQALQTVCLKGTKVHMKCFLAFTQTKTFHEASEDCISRGGTLSTPQTGSENDALYEYLRQSVGNEAEIWLGLNRATLRPRWVDMTGARIAYKNWETEITAQPDGGKNCAVLSGAANGKWFDKRCRDQLPYICQFGIV
notes: ATRIMER; also called 4a8c
- % cell death of H2122 and A2780 cells, 20 µg/mL, 20 h [2]: > 50%
